Laboratory results: patent CN117715654A (OXFORD BIOTHERAPEUTICS LTD, dated 2024)

Target: human CD205 (human)
Experiment: cell-based or functional assay

B1: 16A5(CD205_A1), DM4-conjugated anti-CD205 (anti-LY75) monoclonal antibody (antibody, V domains shown)
VH: EVQLVESGGGLVKPGGSLRLSCAASGFTYSNAWMSWVRQAPGKGLEWVGRIKSKTDGGTTDYAAPVQGRFTISRDDSKNTLYLQMNSLKTEDTAVYYCTIFGVVSFDYWGQGTLVTVSS
VL: DVQMTQSPSSLSASVGDRVTITCRASQSISDYLSWYQQRPGKAPNLLIYAASNLKTGVPSRFSGSGSGTDFTLTISTLQPEDFATYYCQQSYRSPWTFGQGTKVEIKR
modifications: conjugated to maytansinoid DM4; attachment residues not stated
- EC50 of cytotoxicity on Raji cells (Cell-Titer Glo, 96 h): 0.728 nM
- EC50 of cytotoxicity on THP1 cells (Cell-Titer Glo, 96 h): 0.0375 nM
